{"source": "paper PMC5589886", "key": {"[1]": {"target": "relaxin family peptide receptor-1 (human) (UniProt Q9HBX9)", "sequence (Q9HBX9 whole entry)": "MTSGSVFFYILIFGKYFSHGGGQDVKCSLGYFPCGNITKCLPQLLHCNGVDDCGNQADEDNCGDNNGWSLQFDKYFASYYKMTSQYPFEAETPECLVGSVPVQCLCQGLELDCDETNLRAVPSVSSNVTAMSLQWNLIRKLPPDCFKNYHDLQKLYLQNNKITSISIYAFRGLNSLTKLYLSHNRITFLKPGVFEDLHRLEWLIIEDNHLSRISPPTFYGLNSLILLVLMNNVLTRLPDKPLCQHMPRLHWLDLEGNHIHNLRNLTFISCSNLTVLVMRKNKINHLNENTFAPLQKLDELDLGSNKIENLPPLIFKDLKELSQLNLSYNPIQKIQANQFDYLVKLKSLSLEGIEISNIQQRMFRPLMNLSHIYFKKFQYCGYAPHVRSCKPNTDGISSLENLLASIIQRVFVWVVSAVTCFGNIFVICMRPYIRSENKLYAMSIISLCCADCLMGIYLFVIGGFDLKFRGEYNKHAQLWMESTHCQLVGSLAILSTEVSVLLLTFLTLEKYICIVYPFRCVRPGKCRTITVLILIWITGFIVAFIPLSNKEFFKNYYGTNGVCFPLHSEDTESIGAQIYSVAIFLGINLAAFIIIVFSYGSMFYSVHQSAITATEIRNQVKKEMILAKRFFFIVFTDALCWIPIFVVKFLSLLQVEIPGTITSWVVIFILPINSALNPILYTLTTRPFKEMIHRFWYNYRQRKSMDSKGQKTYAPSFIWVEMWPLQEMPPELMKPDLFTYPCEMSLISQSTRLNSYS"}, "[2]": {"target": "relaxin family peptide receptor-1 (human) (UniProt Q9HBX9)", "remark": "listed apart in the source"}, "[3]": {"target": "relaxin family peptide receptor-1 (human) (UniProt Q9HBX9)", "remark": "listed apart in the source"}}, "data": [{"substance": "human relaxin-2 (ligand)", "values": [{"measurement": "cAMP response, representative H2-RLX dose response in LX-2 cells (endogenous RXFP1), pEC50", "setting": "[1]", "value": 8.8, "unit": "pEC50"}, {"measurement": "cAMP response, representative H2-RLX dose response in hHSCs (endogenous RXFP1), pEC50", "setting": "[1]", "value": 9.3, "unit": "pEC50"}, {"measurement": "cAMP response of LX-2 cells (endogenous RXFP1) to 60 min H2-RLX after 40 h culture on plastic, mean pEC50 (n = 7)", "setting": "[2]", "value": 9.1, "unit": "pEC50"}, {"measurement": "cAMP response of primary hHSCs (endogenous RXFP1) to 60 min H2-RLX after 40 h culture, mean pEC50 across three patient samples", "setting": "[2]", "value": 9, "unit": "pEC50"}, {"measurement": "cAMP generation (TR-FRET Lance cAMP immunoassay), mean pEC50 of H2-RLX in HEK293 cells transduced with RXFP1 BacMam at 0.5%, 5% and 10% v/v (pEC50 9.7, 10.2 and 11.3)", "setting": "[3]", "value": 11.3, "unit": "pEC50"}]}]}
